In experiment [1] the target is T1, E. coli Verotoxin II (VT2) (E. coli, UniProt P09385 23-319; P09386 20-89).
T1 sequence 1: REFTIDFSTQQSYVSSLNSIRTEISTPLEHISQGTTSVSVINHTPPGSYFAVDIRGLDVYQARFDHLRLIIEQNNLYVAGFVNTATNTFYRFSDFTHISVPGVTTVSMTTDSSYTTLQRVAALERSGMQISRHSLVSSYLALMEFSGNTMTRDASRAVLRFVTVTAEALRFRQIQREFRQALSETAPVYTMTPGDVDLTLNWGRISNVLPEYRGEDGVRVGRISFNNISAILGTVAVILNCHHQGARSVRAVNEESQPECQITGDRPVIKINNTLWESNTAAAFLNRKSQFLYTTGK
T1 sequence 2: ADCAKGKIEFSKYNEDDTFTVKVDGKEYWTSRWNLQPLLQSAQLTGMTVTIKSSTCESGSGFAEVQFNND
The experiment is described as follows: BIAcore (SPR).

The target in experiment [2] is T1, E. coli Verotoxin II (VT2).
Experiment [3] deals with VT2, VT2vx1 of E. coli 0157:H7 TK40 (E. coli). Put plainly: cell-based or functional assay.

The text below walks through data of patent publication US7846435 (TEIJIN, dated 2010).

B1: humanized VTm1.1 antibody (HuVTm1.1) (antibody, V domains shown)
VH: EVQLVESGGGLVQPGGSLRLSCAASGFTFSSYGMSWVRQAPGKGLEWVATISTGGSYTYYPDSVKGRFTISRDNSKNTLYLQMNSLRAEDTAVYYCARRGDAWGNLDYWGQGTLVTVSS
VL: EIVLTQSPATLSVSPGERATLSCRASQTISNNLHWYQQKPGQAPRLLIKSASQSISGIPARFSGSGSGTDFTLTISSLESEDFAVYYCQQSYSWPLTFGQGTKVEIK
As a reminder, the Kd is the constant that tells how readily two partners part at equilibrium. Higher therefore signals a looser complex. Usually koff stands for the first-order rate constant of dissociation. As a reminder, the kon is the second-order rate constant of association. In experiment [1], B1 returned a Kd of 3.6 nM, a koff of 0.00034 s⁻¹ and a kon of 95000 M⁻¹ s⁻¹. For the same molecule, the “factor of difference in competition compared to the mouse antibody” value in experiment [2] was at most 2 fold. In addition, the ED50 (µg/ml), in vitro neutralizing assay in experiment [3] was determined as 0.35 µg/mL.
